In patent US10654925B2, “Anti-marinobufagenin antibodies and uses thereof” (priority 2018, dated 2020):

B1: 236/237: human anti-MBG antibody, VH SEQ ID NO: 14, VL SEQ ID NO: 15 (antibody, listed as Homo sapiens, V domains shown)
VH: QVQLQESGPGLVKPSETLSLTCTVSGGSISSSSYYWGWIRQPPGKGLEWIGSIYYSGSTYYNPSLKSRVTISVDTSKNQFSLKLSSVTAADTAVYYCARARYNWNYVLFDYWGQGTLVTVSS
VL: QAVLTQPSSVSAAPRQRVTISCSGSASNIGRNGVSWYHQVPGKAPRLLLSHDGLVTSGVPDRLSVSKSGTSASLAISGLHSDDEGDYYCAVWDDSLNAVVFGGGTKLTVLS
B2: 201/202: human anti-MBG antibody, VH SEQ ID NO: 22, VL SEQ ID NO: 23 (antibody, listed as Homo sapiens, V domains shown)
VH: QLQLQESGPGLVKPSQTLSLTCTVSGGSISSGGYYWGWIRQPPGKGLEWIGSIYYSGNTYYNPSLKSRVTISVDTSKNQFSLKLSSVTAADTAVYYCARASIAARTFDYWGQGTLVTVSS
VL: QSVLTQPPSVSAAPGQKVTISCSGSSSNIGNNYVSWYQQLPGTAPKLLIYDNNKRPSGIPDRFSGSKSGTSATLGITGLQTGDEADYYCGTWDSSLSAYVFGTGTKVTVL
B3: 206/208: human anti-MBG antibody, VH SEQ ID NO: 36, VL SEQ ID NO: 37 (antibody, listed as Homo sapiens, V domains shown)
VH: QVQLQESGPGLVKPSETLSLTCTVSGGSISSSSYYWGWIRQPPGKGLEWIGSIYYSGSTYYNPSLKSRVTISVDTSKNQFSLKLSSVTAADTAVYYCARVNLRGAFDIWGQGTTVTVSS
VL: QSVVTQPPSVSGAPGQRVTISCTGSSSNIGAGYDVHWYQQLPGTAPKLLIYENNKRPSGIPDRFSGSKSGTSATLGITGLQTGDEADYYCGTWDSSLSAVVFGGGTKLTVL

Legend:
Na^+K^+-ATPase (NKA) = experiment: Na^+K^+-ATPase activity (Malachite Green Phosphate Assay); type: biochemical, rat; settings: NKA from rat heart (SLP fraction); Pi read as OD 630 nm; FIG. 4
Description: Na^+K^+-ATPase (NKA) was purified from rat heart. The NKA was collected as the sarcolemmal/particulate (SLP) fraction and frozen.
Na^+K^+-ATPase activity was measured as follows: aliquots of SLP were mixed with Reaction Buffer (200 mM Tris-HCl, pH 7.5, 200 mM NaCL, 30 mM MgCl2, 60 mM KCl, 10 mM EGTA, 100 μg/mL PMSF, 2 μg/mL pepstatin A, and 2 μg/mL aprotinin). Reactions were performed with or without MBG and with or without anti-MBG antibodies (1-100 μg/mL). Ouabain was used as positive control for NKA inhibition. Tubes were prewarmed, and ATP was added. Reactions were stopped and were placed on ice.
Phosphate was assayed using the Malachite Green Phosphate Assay. Phosphate standard or sample was added to each well of a 96-well plate, followed by Reagent A. Reagent B was added, with mixing and incubation. OD was then read at 630 nm in a microplate spectrophotometer.

[1] = ELISA avidity estimate on MBG-BSA; type: binding; settings: wells coated with 2 μg/ml MBG-BSA; IgG
Description: (§1) The avidity of anti-MBG antibodies for MBG was estimated in an ELISA. Wells of a microtiter plate were coated with 2 μg/ml of either MBG-bovine serum albumin (BSA) or MBG-keyhole limpet hemocyanin (KLH). The wells were then blocked with 1% BSA. A test IgG antibody at varying concentrations (typically from about 0.0001 nM to about 25 nM) was added to the wells. The test IgG bound to immobilized MBG was detected with an anti-human Fc, horseradish peroxidase (HRP)-conjugated secondary antibody (Jackson ImmunoResearch). After washing of the wells, an appropriate HRP reagent (e.g., TMB ultra, Thermo Fisher) was added to the wells. Optical density (OD) at 450 nm was measured by a microplate reader. The concentration of test antibody at the midpoint of the binding curve is an estimate of avidity for MBG.

[2] = Competitive ELISA, relative CTS specificity, DIG as competitor; type: binding; settings: competition with immobilized MBG-BSA; normalized to MBG = 100%
Description: (§2) The specificity (relative affinity) of anti-MBG antibodies for MBG relative to various cardiotonic steroids (CTSs) was determined in a competitive ELISA. Each anti-MBG antibody was tested for its binding to immobilized MBG in the presence of free MBG, resibufogenin (RBG), cinobufagin (CINO), ouabain (OUB) or digoxin (DIG) as a competitor. A constant amount of an anti-MBG antibody (typically 1-5 μg/mL) and varying concentrations of each CTS (from 10^−12M to 10^−5M) were pre-incubated before being added to the MBG-BSA-coated wells. After washing of the wells, an anti-human Fc, HRP-conjugated secondary antibody (at 1:5000 dilution) was added to the wells and incubated at 37° C. for 1 hr. After washing of the wells, an appropriate HRP reagent (e.g., TMB ultra, Thermo Fisher) was added to the wells. OD at 450 nm was measured by a microplate reader. MBG at 10 μM was assumed to be 100% competed, and MBG at 1 pM was assumed to be 0% competed. The data was plotted as a titration of antibody-antigen binding relative to free CTS concentration in the competition reaction to determine the free CTS concentration (μM) giving 50% maximal binding of antibody to immobilized MBG. The relative specificity of an antibody for a CTS was normalized to MBG=100%.

[3] = ELISA avidity estimate on MBG-KLH; type: binding; settings: wells coated with 2 μg/ml MBG-KLH; IgG
Description: as §1

[4] = Competitive ELISA, relative CTS specificity, CINO as competitor; type: binding; settings: competition with immobilized MBG-BSA; normalized to MBG = 100%
Description: as §2

[5] = tested on: human umbilical cord venous endothelial cells (HUVEC); experiment: Reversal of MBG inhibition of HUVEC cell proliferation (3H-thymidine); type: cell-based; settings: MBG 2 nM, antibody 20 μg/mL, 48 hr; FIG. 3a
Description: MBG (2 nM) was incubated with an antibody (20 μg/mL in FIG. 3a with human anti-MBG mAbs, or varying concentrations (2.5-10 μg/mL) in FIG. 3b with humanized anti-MBG mAbs) prior to addition to cultured human umbilical cord venous endothelial cells (HUVEC). After 48 hr, DNA synthesis was assessed by incorporation of ^3H-thymidine.
HUVEC cells in endothelial cell growth medium were plated onto 96-well plates. The next day, the cells were pretreated with various antibodies (2.5-20 μg/mL) and then incubated with 2 nM MBG for 48 hr. [^3H]-Thymidine was added to each well. [^3H]-Thymidine-labeled DNA was assayed by harvesting the cells and assaying for ^3H using a PerkinElmer Wallac Tailux liquid scintillation counter. […] Means were tested for significance using Student's t-test.

[6] = Competitive ELISA, relative CTS specificity, OUB as competitor; type: binding; settings: competition with immobilized MBG-BSA; normalized to MBG = 100%
Description: as §2

[7] = tested on: PKC-δ in the nucleus of primary rat cardiac fibroblasts; experiment: Inhibition of MBG-induced PKC-δ nuclear translocation (Western blot); settings: MBG 2 nM; nuclei isolated 30 min later; FIG. 2a
Description: MBG was incubated with an anti-MBG antibody prior to addition to cultured primary rat cardiac fibroblasts. Nuclei were isolated 30 min later and analyzed for amount of PKC-6.

[8] = Competitive ELISA, free CTS competitors overall (summary and footnote); type: binding; settings: competitors RBG, CINO, OUB, DIG; Table 2
Description: as §2

[9] = Competitive ELISA, relative CTS specificity, free MBG as competitor; type: binding; settings: competition with immobilized MBG-BSA; normalized to MBG = 100%
Description: as §2

[10] = Competitive ELISA, relative CTS specificity, RBG as competitor; type: binding; settings: competition with immobilized MBG-BSA; normalized to MBG = 100%
Description: as §2

Molecule	inhibition of NKA activity (Na^+K^+-ATPase (NKA))	Estimated avidity (KA) (antibody concentration at 50% maximal binding to antigen, or EC50), Antigen 1 (MBG-BSA) [1] [nM]	Rel. CTS Specificity as % of MBG Binding: DIG [2] [%]	Estimated avidity (KA) (antibody concentration at 50% maximal binding to antigen, or EC50), Antigen 2 (MBG-KLH) [3] [nM]	Rel. CTS Specificity as % of MBG Binding: CINO [4] [%]	MBG inhibition of HUVEC cell proliferation, human mAbs [5]	Rel. CTS Specificity as % of MBG Binding: OUB [6] [%]	amount of PKC-δ in the nucleus, MBG plus antibody [7]	reaction with CTS competitor molecules [8]	Rel. CTS Specificity as % of MBG Binding: MBG [9] [%]	Rel. CTS Specificity as % of MBG Binding: RBG [10] [%]
C[C@@H]1O[C@@H](O[C@H]2C[C@@H](O)[C@]3(CO)[C@H]4[C@H](O)C[C@]5(C)[C@@H](C6=CC(=O)OC6)CC[C@]5(O)[C@@H]4CC[C@]3(O)C2)[C@H](O)[C@H](O)[C@H]1O [Ouabain, ouabain]	inhibit the NKA activity significantly	–	–	–	–	–	–	–	–	–	–
B1	–	0.12	0	0.14	0	significantly reduced	0	reduced	did not react with any of the CTS competitor molecules	100	0
B2	–	0.33	0	0.20	20	significantly reduced	0	reduced	reacted with the CTS competitors RBG and CINO	100	50
B3	–	1.35	0	0.20	0	–	0	reduced	reacted with CTS competitor RBG	100	20
